Here are results for 7 molecules from patent US20260176378A1 (DYAX, published 2026).

The labels stand for the following.
B1: M162-A04 (antibody, V domains shown)
VH: EVQLLESGGGLVQPGGSLRLSCAASGFTFSHYIMMWVRQAPGKGLEWVSGIYSSGGITVYADSVKGRFTISRDNSKNTLYLQMNSLRAEDTAVYYCAYRRTGIPRRDAFDIWGQGTMVTVSS
VL: DIQMTQSPSTLSASVGDRVTITCRASQSISSWLAWYQQKPGKAPNLLIYKASTLESGVPSRFSGSGSGTEFTLTISSLQPDDFATYYCQQYNTYWTFGQGTKVEIK
notes: phage-derived Fab; also called R84-H05; M162-A4
B2: M10-F10 (Fab, V domains shown)
VH: EVQLLESGGGLVQPGGSLRLSCAASGFTFSFYNMNWVRQAPGKGLEWVSSISPSGGETNYADSVKGRFTISRDNSKNTLYLQMNSLRAEDTAVYYCARGGGAYRNNWWGGFDIWGLGTMVTVSS
VL: DIQMTQSPSSLSASVGDRVTITCRASQSISVYLNWYQHKPGKAPKLLIYGASNLQFGVPSRFSGSGYGTDFTLTISSLQPEDFATYHCQQTFSLFTFGGGTKVEIK
B3: M6-D09 (Fab, V domains shown)
VH: EVQLLESGGGLVQPGGSLRLSCAASGFTFSFYYMVWVRQAPGKGLEWVSVIYPSGGITVYADSVKGRFTISRDNSKNTLYLQMNSLRAEDTAVYYCARDKWAVMPPYYYYAMDVWGQGTTVTVSS
VL: DIQMTQSPSSLSASVGDRVTITCRASQSIRNYLNWYQQKPGKAPNLLIYAASTLQSGVPARFSGSGSGTDFTLTISSLQPEDFATYYCQQLSGYPHTFGQGTKLEIK
notes: also called M06-D09; 559A-M06-D09
B4: M160-G12 (antibody, V domains shown)
VH: EVQLLESGGGLVQPGGSLRLSCAASGFTFSHYLMTWVRQAPGKGLEWVSYISPSGGHTIYADSVKGRFTISRDNSKNTLYLQMNSLRAEDTAVYYCARVARGIAARSRTSYFDYWGQGTLVTVSS
VL: DIQMTQSPSFLSASVGDRVTITCRASQGISSYLAWYQQKPGKAPKLLIYAASTLQSGVPSRFSGSGSGTEFTLTISSLQPEDFATYYCQQLNSYPLTFGGGTKVEIK
notes: phage-derived Fab; also called R84-D02
B5: M7-E07 (Fab, V domains shown)
VH: EVQLLESGGGLVQPGGSLRLSCAASGFTFSWYLMIWVRQAPGKGLEWVSYIYPSGGFTYYADSVKGRFTISRDNSKNTLYLQMNSLRAEDMAVYYCARTEGPLSWGYGMDVWGQGTTVTVSS
VL: not shown
B6: M161-C11 (Fab, V domains shown)
VH: EVQLLESGGGLVQPGGSLRLSCAASGFTFSDYAMKWVRQAPGKGLEWVSSISSSGGVTQYADSVKGRFTISRDNSKNTLYLQMNSLRAEDTAVYYCAREEDYSSSWYSRRFDYYYGMDVWGQGTTVTVSS
VL: QSALTQPPSVSVSPGQTASITCSGDKLGDKYVSWYQQRPGQSPVLVIYQDTKRPSGIPERFSGSNSGNTATLTISGTQAVDEADYYCQAWDSSTYVFGGGTKVTVL
B7: M8-A09 (Fab, V domains shown)
VH: EVQLLESGGGLVQPGGSLRLSCAASGFTFSTYFMLWVRQAPGKGLEWVSSIYPSGGNTVYADSVKGRFTISRDNSKNTLYLQMNSLRAEDTAVYYCARAASPVRNYYYYGMDVWGQGTTVTVSS
VL: QCELTQPPSESVSPGQTANITCSGDKLGNKYAYWYQQKPGQSPVLVIYQDNNRPSGIPERFSGSNSGNTATLTISGTQAIDEANYYCQAWDSRTVVFGGGTKLTVL

T1 sequence (P03952 20-390 limits assumed, chain 1 of 2): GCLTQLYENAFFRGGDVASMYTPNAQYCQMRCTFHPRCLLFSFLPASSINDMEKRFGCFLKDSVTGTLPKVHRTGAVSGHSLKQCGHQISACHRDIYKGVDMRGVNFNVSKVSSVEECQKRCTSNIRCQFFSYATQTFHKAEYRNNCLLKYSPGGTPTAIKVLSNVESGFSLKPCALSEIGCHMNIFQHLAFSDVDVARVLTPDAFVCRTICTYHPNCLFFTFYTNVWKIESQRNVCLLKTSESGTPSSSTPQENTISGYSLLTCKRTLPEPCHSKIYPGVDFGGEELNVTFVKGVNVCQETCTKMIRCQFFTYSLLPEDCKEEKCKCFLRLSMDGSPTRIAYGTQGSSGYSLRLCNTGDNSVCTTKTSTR
T1 sequence (P03952 391-638 limits assumed, chain 2 of 2): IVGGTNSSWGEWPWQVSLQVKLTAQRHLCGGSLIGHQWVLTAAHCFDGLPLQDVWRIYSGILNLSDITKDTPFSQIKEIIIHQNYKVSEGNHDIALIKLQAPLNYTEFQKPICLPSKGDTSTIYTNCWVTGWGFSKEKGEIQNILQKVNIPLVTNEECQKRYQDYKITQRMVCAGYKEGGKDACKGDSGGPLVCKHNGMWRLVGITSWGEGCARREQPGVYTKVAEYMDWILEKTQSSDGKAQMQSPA
T2 sequence (P03952 other isoform, or with tags, fused parts or gaps mutant): as the sequence (P03952 391-638 limits assumed, chain 2 of 2) above, with R161A, Q163A, Y165A, T168A, R170A counted along it

One experiment has as its target T1, human plasma kallikrein (human, UniProt P03952 20-390; P03952 391-638).
T1 construct: two disulfide-linked chains; NP_000883.2; also called pKal; hpKal
The experiment in a line: ELISA, biotinylated pKal signal over streptavidin background. (In general: An ELISA detects its analyte on a solid surface through an enzyme-linked reagent.)
For the molecule B1, the “ELISA (T/B)” value was determined as 11.4. The same measure, in the same setting: under B2 stands 39.2; under B3, 39.9; under B4, 38.3.

For B5, the “ELISA (T/B)” value amounted to 45.7.

Regarding B6, the “ELISA (T/B)” value came to 41.8. As to B7, the “ELISA (T/B)” value was determined as 5.4.

Another experiment concerns the target T2, pKal catalytic domain Mutant 2 (human, UniProt P03952 391-638).
T2 construct: Pichia pastoris; construct limits derived as for the wild type domain; not shown: His tag fusion
Put plainly: equilibrium Ki,app. The procedure:
Enzyme and inhibitor were pre-incubated for 2 hours at 30° C. in a 96-well plate by adding 10 μL of a 10× enzyme solution and 10 μL of 10× inhibitor solutions to 70 μL of reaction buffer. Reactions were initiated by the addition of 10 μL of a 10× concentrated stock of substrate, and were monitored at 30° C. in a fluorescence plate reader with the excitation and emission wavelengths set at 360 nm/460 nm, respectively. Kinetic data were acquired by the increase in fluorescence, and initial rates for each condition were plotted against the total inhibitor concentration. The data was fit to the following equation for tight binding inhibitors: […]
In the case of B3, the “fold change of Ki,app against the wild type catalytic domain” value is about 5 fold.
